# Test results taken from patent US20230002496A1 (STAIDSON BEIJING BIOPHARMACEUTICALS, published 2023).
# T1: human GM-CSFRα, full length on cells (human, UniProt P15509 23-400)
# T1 sequence: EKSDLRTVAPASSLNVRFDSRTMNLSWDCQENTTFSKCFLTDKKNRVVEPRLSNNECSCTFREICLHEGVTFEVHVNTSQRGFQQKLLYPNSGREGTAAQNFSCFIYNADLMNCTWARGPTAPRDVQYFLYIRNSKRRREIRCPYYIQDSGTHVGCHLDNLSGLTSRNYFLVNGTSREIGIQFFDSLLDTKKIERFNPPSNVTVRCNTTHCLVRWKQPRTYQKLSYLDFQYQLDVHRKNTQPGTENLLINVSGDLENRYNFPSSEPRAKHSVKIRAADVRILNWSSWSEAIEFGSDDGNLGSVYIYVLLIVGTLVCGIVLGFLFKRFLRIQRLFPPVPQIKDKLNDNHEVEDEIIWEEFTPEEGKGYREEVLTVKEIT
# Molecular target: T1, human GM-CSFRα, full length on cells
# Assay: cell-based or functional assay
row,Binder,"IC50, TF-1 cell proliferation [µg/mL]"
1,"E35-scFv LA51L (scFv, V domains shown) VH: QMQLVQSGAEVKKPGASVKVSCKVSGYTLTELSIHWVRQAPGKGLEWMGGFDPEDGETIYAQKFQGRVTMTGDTSTDTAYLELSSLRSEDTALYYCATGRYTSLATTYGFDYWGQGTLVTVSS VL: EIVMTQSPATLSLSPGERATLSCRASQSVSSYLAWYQQKPGQAPRLLIYGLSSRATGIPDRFSGSGSGTDFTLTISRLEPEDFAVYYCQQYDNWPYTFGQGTKLEIK",0.5
2,"E35-scFv LA51T (scFv, V domains shown) VH: QMQLVQSGAEVKKPGASVKVSCKVSGYTLTELSIHWVRQAPGKGLEWMGGFDPEDGETIYAQKFQGRVTMTGDTSTDTAYLELSSLRSEDTALYYCATGRYTSLATTYGFDYWGQGTLVTVSS VL: EIVMTQSPATLSLSPGERATLSCRASQSVSSYLAWYQQKPGQAPRLLIYGTSSRATGIPDRFSGSGSGTDFTLTISRLEPEDFAVYYCQQYDNWPYTFGQGTKLEIK",0.18
3,"E35-scFv LA51S (scFv, V domains shown) VH: QMQLVQSGAEVKKPGASVKVSCKVSGYTLTELSIHWVRQAPGKGLEWMGGFDPEDGETIYAQKFQGRVTMTGDTSTDTAYLELSSLRSEDTALYYCATGRYTSLATTYGFDYWGQGTLVTVSS VL: EIVMTQSPATLSLSPGERATLSCRASQSVSSYLAWYQQKPGQAPRLLIYGSSSRATGIPDRFSGSGSGTDFTLTISRLEPEDFAVYYCQQYDNWPYTFGQGTKLEIK",0.18
4,"E35-scFv LA51W (scFv, V domains shown) VH: QMQLVQSGAEVKKPGASVKVSCKVSGYTLTELSIHWVRQAPGKGLEWMGGFDPEDGETIYAQKFQGRVTMTGDTSTDTAYLELSSLRSEDTALYYCATGRYTSLATTYGFDYWGQGTLVTVSS VL: EIVMTQSPATLSLSPGERATLSCRASQSVSSYLAWYQQKPGQAPRLLIYGWSSRATGIPDRFSGSGSGTDFTLTISRLEPEDFAVYYCQQYDNWPYTFGQGTKLEIK",1.59
5,"E35-scFv LA51E (scFv, V domains shown) VH: QMQLVQSGAEVKKPGASVKVSCKVSGYTLTELSIHWVRQAPGKGLEWMGGFDPEDGETIYAQKFQGRVTMTGDTSTDTAYLELSSLRSEDTALYYCATGRYTSLATTYGFDYWGQGTLVTVSS VL: EIVMTQSPATLSLSPGERATLSCRASQSVSSYLAWYQQKPGQAPRLLIYGESSRATGIPDRFSGSGSGTDFTLTISRLEPEDFAVYYCQQYDNWPYTFGQGTKLEIK",0.81
6,"E35-scFv LA51N (scFv, V domains shown) VH: QMQLVQSGAEVKKPGASVKVSCKVSGYTLTELSIHWVRQAPGKGLEWMGGFDPEDGETIYAQKFQGRVTMTGDTSTDTAYLELSSLRSEDTALYYCATGRYTSLATTYGFDYWGQGTLVTVSS VL: EIVMTQSPATLSLSPGERATLSCRASQSVSSYLAWYQQKPGQAPRLLIYGNSSRATGIPDRFSGSGSGTDFTLTISRLEPEDFAVYYCQQYDNWPYTFGQGTKLEIK",0.36
7,"E35-scFv LS52H (scFv, V domains shown) VH: QMQLVQSGAEVKKPGASVKVSCKVSGYTLTELSIHWVRQAPGKGLEWMGGFDPEDGETIYAQKFQGRVTMTGDTSTDTAYLELSSLRSEDTALYYCATGRYTSLATTYGFDYWGQGTLVTVSS VL: EIVMTQSPATLSLSPGERATLSCRASQSVSSYLAWYQQKPGQAPRLLIYGAHSRATGIPDRFSGSGSGTDFTLTISRLEPEDFAVYYCQQYDNWPYTFGQGTKLEIK",0.192
8,"E35-scFv LS52Y (scFv, V domains shown) VH: QMQLVQSGAEVKKPGASVKVSCKVSGYTLTELSIHWVRQAPGKGLEWMGGFDPEDGETIYAQKFQGRVTMTGDTSTDTAYLELSSLRSEDTALYYCATGRYTSLATTYGFDYWGQGTLVTVSS VL: EIVMTQSPATLSLSPGERATLSCRASQSVSSYLAWYQQKPGQAPRLLIYGAYSRATGIPDRFSGSGSGTDFTLTISRLEPEDFAVYYCQQYDNWPYTFGQGTKLEIK",0.181
9,"E35-scFv LA51K (scFv, V domains shown) VH: QMQLVQSGAEVKKPGASVKVSCKVSGYTLTELSIHWVRQAPGKGLEWMGGFDPEDGETIYAQKFQGRVTMTGDTSTDTAYLELSSLRSEDTALYYCATGRYTSLATTYGFDYWGQGTLVTVSS VL: EIVMTQSPATLSLSPGERATLSCRASQSVSSYLAWYQQKPGQAPRLLIYGKSSRATGIPDRFSGSGSGTDFTLTISRLEPEDFAVYYCQQYDNWPYTFGQGTKLEIK",0.168

# Now from value to binder:
row,"IC50, TF-1 cell proliferation [µg/mL]",Binder
1,0.167,"E35-scFv LS52F (scFv, V domains shown) VH: QMQLVQSGAEVKKPGASVKVSCKVSGYTLTELSIHWVRQAPGKGLEWMGGFDPEDGETIYAQKFQGRVTMTGDTSTDTAYLELSSLRSEDTALYYCATGRYTSLATTYGFDYWGQGTLVTVSS VL: EIVMTQSPATLSLSPGERATLSCRASQSVSSYLAWYQQKPGQAPRLLIYGAFSRATGIPDRFSGSGSGTDFTLTISRLEPEDFAVYYCQQYDNWPYTFGQGTKLEIK"
2,0.294,"E35-scFv LA51F (scFv, V domains shown) VH: QMQLVQSGAEVKKPGASVKVSCKVSGYTLTELSIHWVRQAPGKGLEWMGGFDPEDGETIYAQKFQGRVTMTGDTSTDTAYLELSSLRSEDTALYYCATGRYTSLATTYGFDYWGQGTLVTVSS VL: EIVMTQSPATLSLSPGERATLSCRASQSVSSYLAWYQQKPGQAPRLLIYGFSSRATGIPDRFSGSGSGTDFTLTISRLEPEDFAVYYCQQYDNWPYTFGQGTKLEIK"
3,0.264,"E35-scFv LA51M (scFv, V domains shown) VH: QMQLVQSGAEVKKPGASVKVSCKVSGYTLTELSIHWVRQAPGKGLEWMGGFDPEDGETIYAQKFQGRVTMTGDTSTDTAYLELSSLRSEDTALYYCATGRYTSLATTYGFDYWGQGTLVTVSS VL: EIVMTQSPATLSLSPGERATLSCRASQSVSSYLAWYQQKPGQAPRLLIYGMSSRATGIPDRFSGSGSGTDFTLTISRLEPEDFAVYYCQQYDNWPYTFGQGTKLEIK"
4,0.37,"E35-scFv LA51C (scFv, V domains shown) VH: QMQLVQSGAEVKKPGASVKVSCKVSGYTLTELSIHWVRQAPGKGLEWMGGFDPEDGETIYAQKFQGRVTMTGDTSTDTAYLELSSLRSEDTALYYCATGRYTSLATTYGFDYWGQGTLVTVSS VL: EIVMTQSPATLSLSPGERATLSCRASQSVSSYLAWYQQKPGQAPRLLIYGCSSRATGIPDRFSGSGSGTDFTLTISRLEPEDFAVYYCQQYDNWPYTFGQGTKLEIK"
5,0.162,"E35-scFv LA51H (scFv, V domains shown) VH: QMQLVQSGAEVKKPGASVKVSCKVSGYTLTELSIHWVRQAPGKGLEWMGGFDPEDGETIYAQKFQGRVTMTGDTSTDTAYLELSSLRSEDTALYYCATGRYTSLATTYGFDYWGQGTLVTVSS VL: EIVMTQSPATLSLSPGERATLSCRASQSVSSYLAWYQQKPGQAPRLLIYGHSSRATGIPDRFSGSGSGTDFTLTISRLEPEDFAVYYCQQYDNWPYTFGQGTKLEIK"
6,1.75,"E35-scFv LS52D (scFv, V domains shown) VH: QMQLVQSGAEVKKPGASVKVSCKVSGYTLTELSIHWVRQAPGKGLEWMGGFDPEDGETIYAQKFQGRVTMTGDTSTDTAYLELSSLRSEDTALYYCATGRYTSLATTYGFDYWGQGTLVTVSS VL: EIVMTQSPATLSLSPGERATLSCRASQSVSSYLAWYQQKPGQAPRLLIYGADSRATGIPDRFSGSGSGTDFTLTISRLEPEDFAVYYCQQYDNWPYTFGQGTKLEIK"
7,0.12,"E35-scFv LA51R (scFv, V domains shown) VH: QMQLVQSGAEVKKPGASVKVSCKVSGYTLTELSIHWVRQAPGKGLEWMGGFDPEDGETIYAQKFQGRVTMTGDTSTDTAYLELSSLRSEDTALYYCATGRYTSLATTYGFDYWGQGTLVTVSS VL: EIVMTQSPATLSLSPGERATLSCRASQSVSSYLAWYQQKPGQAPRLLIYGRSSRATGIPDRFSGSGSGTDFTLTISRLEPEDFAVYYCQQYDNWPYTFGQGTKLEIK"
8,0.253,"E35-scFv LS52N (scFv, V domains shown) VH: QMQLVQSGAEVKKPGASVKVSCKVSGYTLTELSIHWVRQAPGKGLEWMGGFDPEDGETIYAQKFQGRVTMTGDTSTDTAYLELSSLRSEDTALYYCATGRYTSLATTYGFDYWGQGTLVTVSS VL: EIVMTQSPATLSLSPGERATLSCRASQSVSSYLAWYQQKPGQAPRLLIYGANSRATGIPDRFSGSGSGTDFTLTISRLEPEDFAVYYCQQYDNWPYTFGQGTKLEIK"
9,1.05,"E35-scFv LS52P (scFv, V domains shown) VH: QMQLVQSGAEVKKPGASVKVSCKVSGYTLTELSIHWVRQAPGKGLEWMGGFDPEDGETIYAQKFQGRVTMTGDTSTDTAYLELSSLRSEDTALYYCATGRYTSLATTYGFDYWGQGTLVTVSS VL: EIVMTQSPATLSLSPGERATLSCRASQSVSSYLAWYQQKPGQAPRLLIYGAPSRATGIPDRFSGSGSGTDFTLTISRLEPEDFAVYYCQQYDNWPYTFGQGTKLEIK"
10,0.36,"E35-scFv LA51V (scFv, V domains shown) VH: QMQLVQSGAEVKKPGASVKVSCKVSGYTLTELSIHWVRQAPGKGLEWMGGFDPEDGETIYAQKFQGRVTMTGDTSTDTAYLELSSLRSEDTALYYCATGRYTSLATTYGFDYWGQGTLVTVSS VL: EIVMTQSPATLSLSPGERATLSCRASQSVSSYLAWYQQKPGQAPRLLIYGVSSRATGIPDRFSGSGSGTDFTLTISRLEPEDFAVYYCQQYDNWPYTFGQGTKLEIK"
11,0.12,"E35-scFv LA51G (scFv, V domains shown) VH: QMQLVQSGAEVKKPGASVKVSCKVSGYTLTELSIHWVRQAPGKGLEWMGGFDPEDGETIYAQKFQGRVTMTGDTSTDTAYLELSSLRSEDTALYYCATGRYTSLATTYGFDYWGQGTLVTVSS VL: EIVMTQSPATLSLSPGERATLSCRASQSVSSYLAWYQQKPGQAPRLLIYGGSSRATGIPDRFSGSGSGTDFTLTISRLEPEDFAVYYCQQYDNWPYTFGQGTKLEIK"
